For assay [1], the target named is human FcRn-eGFP on transduced HeLa cells (human) (UniProt P55899). The experiment in a line: flow cytometry, hFcRn-eGFP HeLa cells, blocks Alexa647-hIgG, pH 6.0.
For assay [2] the target is unchanged. Described as above. This is another data set of the same source.
Assay [3] has as its target T1, human FcRn (Biorbyt, cat. no. orb84388) (human, UniProt P55899 24-297; P61769 21-119, limits assumed).
T1 construct: Bought protein; also called hFcRn
Description: ELISA screening; periplasm with the ABD moiety only captured on anti-ABD antibody, biotinylated hFcRn at 2 nM. Here is the method: After washing as described above, 50 μl ImmunoPure TMB substrate (Thermo Scientific, cat. no. 34021) was added to the wells and the plates were treated according to the manufacturer's recommendations.
T1 sequence (P55899 24-297 limits assumed, chain 1 of 2): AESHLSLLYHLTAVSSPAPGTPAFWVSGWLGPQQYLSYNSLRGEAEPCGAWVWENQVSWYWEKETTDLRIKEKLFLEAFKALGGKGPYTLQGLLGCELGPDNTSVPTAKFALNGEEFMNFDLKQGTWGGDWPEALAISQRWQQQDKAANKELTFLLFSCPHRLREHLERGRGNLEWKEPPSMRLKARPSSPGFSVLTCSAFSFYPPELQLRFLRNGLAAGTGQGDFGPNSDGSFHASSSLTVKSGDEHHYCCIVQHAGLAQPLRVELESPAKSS
T1 sequence (P61769 21-119 limits assumed, chain 2 of 2): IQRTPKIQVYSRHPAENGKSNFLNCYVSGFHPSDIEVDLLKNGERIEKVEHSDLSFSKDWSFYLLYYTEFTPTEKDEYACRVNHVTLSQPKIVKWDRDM

Assay [4] concerns the target T2, human FcRn (Biorbyt, cat. no. orb84388) (human, UniProt P55899 24-297; P61769 21-119, limits assumed).
T2 construct: Bought soluble protein; not biotinylated on Biacore chips and ELISA coat; also called hFcRn
The experiment in a line: SPR Biacore, hFcRn immobilised; sample before the stability test (0). The procedure: (§1) The His₆-tagged Z variants were further assessed in terms of preserved binding capacity to FcRn after introduction of alterations in the scaffold, as well as after having been subjected to the stability test, i.e. incubated at 37° C. for 2 weeks. Comparative kinetic constants (kₒₙ and koff) and affinities (KD) were determined using a Biacore 2000 instrument. The target protein human FcRn (Biorbyt, cat. no. orb 84388) was immobilized on the carboxylated dextran layer surface of a CM5 chip (GE Healthcare). The immobilization was performed using amine coupling chemistry according to the manufacturer's protocol and using HBS-EP as running buffer. One flow cell surface on the chip was activated and deactivated for use as blank during analyte injections. The immobilization level of hFcRn on the surface was approximately 750 RU. […] Regeneration by three pulses of HBS-EP followed by 10 min equilibration in running buffer was applied after each analyte injection. Kinetic constants were calculated from the sensorgrams using the Langmuir 1:1 model of the BiaEvaluation software 4.1 (GE Healthcare). Curves of the blank surface were subtracted from the curves of the ligand surfaces and the data from the buffer cycles were subtracted from the data of the test-sample cycles to correct for any drift in signal.
A general note: In SPR one partner is held on a chip, and binding of the other changes the refractive index at the surface.
T2 sequence (P55899 24-297 limits assumed, chain 1 of 2): as the sequence (P55899 24-297 limits assumed, chain 1 of 2) above
T2 sequence (P61769 21-119 limits assumed, chain 2 of 2): as the sequence (P61769 21-119 limits assumed, chain 2 of 2) above

In assay [5] the target is T2, human FcRn (Biorbyt, cat. no. orb84388). Description: SPR Biacore, hFcRn immobilised; sample after 2 weeks at 37 °C (2 w). The procedure: as §1

The values below come from patent publication US20190284241A1 (Affibody, published 2019).

Read-outs that look alike come from different tables or passages of the source.

By IC50 is commonly meant the concentration needed to halve the response being measured. Read a low IC50 as higher potency. The Kd is the concentration at which binding is half-saturated. Read a high Kd as lower affinity. In general, koff refers to the first-order rate constant of dissociation. Low values mean a long-lived complex, high ones a short-lived complex. One may read the kon as the rate constant with which the complex forms.

human FcRn-eGFP on transduced HeLa cells (human), sequence (P55899 24-365, chain 1 of 2): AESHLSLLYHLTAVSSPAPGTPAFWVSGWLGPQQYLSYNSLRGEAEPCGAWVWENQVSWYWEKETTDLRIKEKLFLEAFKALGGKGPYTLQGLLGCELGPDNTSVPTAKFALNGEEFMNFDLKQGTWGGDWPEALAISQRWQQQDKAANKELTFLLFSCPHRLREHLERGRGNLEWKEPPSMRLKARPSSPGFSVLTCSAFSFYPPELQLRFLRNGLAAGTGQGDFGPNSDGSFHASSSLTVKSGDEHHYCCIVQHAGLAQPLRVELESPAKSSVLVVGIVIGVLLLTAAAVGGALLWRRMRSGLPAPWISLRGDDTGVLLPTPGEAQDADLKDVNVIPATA
human FcRn-eGFP on transduced HeLa cells (human), sequence (b2m, as listed by the source, chain 2 of 2): as the sequence (P61769 21-119 limits assumed, chain 2 of 2) above

For “Subcutaneous immunoglobulin (SCIg; Gammanorm, Octapharma) (antibody)”, the IC50 in assay [1] worked out at 120 nM.

With “Intravenous immunoglobulin (IVIg; Octagam, Octapharma) (antibody)”, the 50% inhibitory concentration (IC50) in assay [2] was determined as 150 nM; in assay [1] it was 170 nM.

For LAEAKVLANRELDKYGVSDYYKNLINNAKTVEGVKALIDEILAALP (other, Streptococcus strain G148, UniProt P19909 254-299, looked up, domain: GA3) [ABD moiety only (periplasm, negative control)], the binding result in assay [3] is “no binding (tested: 2 nM)”.

B1: His6-tagged Z17348 (designed binder)
chain: MGSSHHHHHHLQAEAKYAKEQDAAAHEIRWLPNLTFDQRVAFIHKLARQPEQSSELLSEAKKLSESQAPK
In assay [4], B1 registered a Kd of 5.5 nM, a koff of 0.01 s⁻¹ and a kon of 1.82e+06 M⁻¹ s⁻¹. In assay [5], this molecule returned a Kd of 6.3 nM, a koff of 0.00809 s⁻¹ and an on-rate (kon) of 1.28e+06 M⁻¹ s⁻¹.
